Laboratory results reported in IntAct's records for PubMed 22500027.

B1: BBSome complex member BBS4 (Homo sapiens), Q96RK4 (parent)
chain: MAEERVATRTQFPVSTESQKPRQKKAPEFPILEKQNWLIHLHYIRKDYEACKAVIKEQLQETQGLCEYAIYVQALIFRLEGNIQESLELFQTCAVLSPQSADNLKQVARSLFLLGKHKAAIEVYNEAAKLNQKDWEISHNLGVCYIYLKQFNKAQDQLHNALNLNRHDLTYIMLGKIHLLEGDLDKAIEVYKKAVEFSPENTELLTTLGLLYLQLGIYQKAFEHLGNALTYDPTNYKAILAAGSMMQTHGDFDVALTKYRVVACAVPESPPLWNNIGMCFFGKKKYVAAISCLKRANYLAPFDWKILYNLGLVHLTMQQYASAFHFLSAAINFQPKMGELYMLLAVALTNLEDIENAKRAYAEAVHLDKCNPLVNLNYAVLLYNQGEKKNALAQYQEMEKKVSLLKDNSSLEFDSEMVEMAQKLGAALQVGEALVWTKPVKDPKSKHQTTSTSKPASFQQPLGSNQALGQAMSSAAAYRTLPSGAGGTSQFTKPPSLPLEPEPAVESSPTETSEQIREK
B2: BBSome complex member BBS1 (Homo sapiens), Q8NFJ9 (parent)
chain: MAAASSSDSDACGAESNEANSKWLDAHYDPMANIHTFSACLALADLHGDGEYKLVVGDLGPGGQQPRLKVLKGPLVMTESPLPALPAAAATFLMEQHEPRTPALALASGPCVYVYKNLRPYFKFSLPQLPPNPLEQDLWNQAKEDRIDPLTLKEMLESIRETAEEPLSIQSLRFLQLELSEMEAFVNQHKSNSIKRQTVITTMTTLKKNLADEDAVSCLVLGTENKELLVLDPEAFTILAKMSLPSVPVFLEVSGQFDVEFRLAAACRNGNIYILRRDSKHPKYCIELSAQPVGLIRVHKVLVVGSTQDSLHGFTHKGKKLWTVQMPAAILTMNLLEQHSRGLQAVMAGLANGEVRIYRDKALLNVIHTPDAVTSLCFGRYGREDNTLIMTTRGGGLIIKILKRTAVFVEGGSEVGPPPAQAMKLNVPRKTRLYVDQTLREREAGTAMHRAFQTDLYLLRLRAARAYLQALESSLSPLSTTAREPLKLHAVVQGLGPTFKLTLHLQNTSTTRPVLGLLVCFLYNEALYSLPRAFFKVPLLVPGLNYPLETFVESLSNKGISDIIKVLVLREGQSAPLLSAHVNMPGSEGLAAA
partner: B1 chain

Variants of: B1
Conditions: with pcm1_human PCM1, Q15154
Sequence of pcm1_human PCM1, Q15154 (Q15154 whole entry): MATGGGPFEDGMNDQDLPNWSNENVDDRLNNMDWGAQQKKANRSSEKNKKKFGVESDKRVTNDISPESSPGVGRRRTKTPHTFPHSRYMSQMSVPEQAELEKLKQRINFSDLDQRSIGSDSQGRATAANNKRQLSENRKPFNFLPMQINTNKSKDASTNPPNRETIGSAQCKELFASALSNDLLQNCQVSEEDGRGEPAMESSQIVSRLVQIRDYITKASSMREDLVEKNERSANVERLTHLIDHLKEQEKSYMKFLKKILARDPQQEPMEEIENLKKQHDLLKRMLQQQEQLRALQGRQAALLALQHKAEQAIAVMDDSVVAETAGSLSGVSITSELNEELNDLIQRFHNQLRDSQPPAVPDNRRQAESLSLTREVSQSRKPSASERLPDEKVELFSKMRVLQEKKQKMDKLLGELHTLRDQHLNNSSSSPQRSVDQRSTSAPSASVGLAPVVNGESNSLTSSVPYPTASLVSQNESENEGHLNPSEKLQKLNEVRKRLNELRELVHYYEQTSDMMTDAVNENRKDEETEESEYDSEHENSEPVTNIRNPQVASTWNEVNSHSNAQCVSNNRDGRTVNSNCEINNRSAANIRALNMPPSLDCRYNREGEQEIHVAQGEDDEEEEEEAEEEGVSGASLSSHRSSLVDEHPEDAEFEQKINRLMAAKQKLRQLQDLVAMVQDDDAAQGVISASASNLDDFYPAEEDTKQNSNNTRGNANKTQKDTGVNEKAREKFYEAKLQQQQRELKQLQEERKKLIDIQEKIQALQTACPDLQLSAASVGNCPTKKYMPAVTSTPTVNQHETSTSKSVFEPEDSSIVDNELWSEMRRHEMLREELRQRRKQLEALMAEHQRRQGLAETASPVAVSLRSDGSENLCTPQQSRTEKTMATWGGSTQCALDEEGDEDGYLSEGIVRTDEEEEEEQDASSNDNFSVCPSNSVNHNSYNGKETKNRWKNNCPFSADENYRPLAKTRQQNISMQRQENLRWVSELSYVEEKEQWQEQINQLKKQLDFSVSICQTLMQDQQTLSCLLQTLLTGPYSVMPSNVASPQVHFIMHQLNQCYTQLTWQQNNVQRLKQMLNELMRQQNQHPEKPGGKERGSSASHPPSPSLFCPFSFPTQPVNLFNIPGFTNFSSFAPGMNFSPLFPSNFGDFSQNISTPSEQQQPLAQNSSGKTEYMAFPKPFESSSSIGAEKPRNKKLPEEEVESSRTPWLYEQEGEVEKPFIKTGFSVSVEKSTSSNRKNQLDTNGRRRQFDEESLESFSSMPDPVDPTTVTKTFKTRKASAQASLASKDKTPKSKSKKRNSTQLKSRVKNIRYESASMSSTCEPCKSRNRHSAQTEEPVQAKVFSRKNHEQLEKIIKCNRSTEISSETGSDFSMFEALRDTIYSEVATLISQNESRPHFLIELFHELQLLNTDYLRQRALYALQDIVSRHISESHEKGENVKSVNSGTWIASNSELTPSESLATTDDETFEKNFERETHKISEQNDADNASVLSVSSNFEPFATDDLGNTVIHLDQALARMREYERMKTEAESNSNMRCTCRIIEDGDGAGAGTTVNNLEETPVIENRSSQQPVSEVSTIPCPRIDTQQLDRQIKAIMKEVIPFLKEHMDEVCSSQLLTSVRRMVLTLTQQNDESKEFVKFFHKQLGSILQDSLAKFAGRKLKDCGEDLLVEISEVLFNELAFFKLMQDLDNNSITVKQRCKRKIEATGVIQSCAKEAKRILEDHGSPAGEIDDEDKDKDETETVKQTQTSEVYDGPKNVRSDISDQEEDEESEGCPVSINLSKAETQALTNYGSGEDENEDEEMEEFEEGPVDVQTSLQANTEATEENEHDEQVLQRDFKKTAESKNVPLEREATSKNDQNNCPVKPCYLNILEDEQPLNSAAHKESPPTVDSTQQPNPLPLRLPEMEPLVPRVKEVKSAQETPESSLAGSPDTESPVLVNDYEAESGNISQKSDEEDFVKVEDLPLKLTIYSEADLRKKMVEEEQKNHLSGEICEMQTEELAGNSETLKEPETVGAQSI

| Variant | effect of a mutation on the interaction |
| --- | --- |
| MAEERVATRTQFPVSTESQKPRQKKAPEFPILEKQNWLIHLHYIRKDYEACKAVIKEQLQETQGLCEYAIYVQALIFRLEGNIQESLELFQTCAVLSPQSADNLKQVARSLFLLGKHKAAIEVYNEAAKLNQKDWEISHNLGVCYIYLKQFNKAQDQLHNALNLNRHDLTYIMLGKIHLLEGDLDKAIEVYKKAVEFSPENTELLTTLGLLYLQLGIYQKAFEHLGNALTYDPTNYKAILAAGSMMQTHGDFDVALTKYRVVACAVPESPPLWNNIGMCFFGKKKYVAAISCLKPANYLAPFDWKILYNLGLVHLTMQQYASAFHFLSAAINFQPKMGELYMLLAVALTNLEDIENAKRAYAEAVHLDKCNPLVNLNYAVLLYNQGEKKNALAQYQEMEKKVSLLKDNSSLEFDSEMVEMAQKLGAALQVGEALVWTKPVKDPKSKHQTTSTSKPASFQQPLGSNQALGQAMSSAAAYRTLPSGAGGTSQFTKPPSLPLEPEPAVESSPTETSEQIREK [R295P] | disrupting interaction |
| MAEERVATRTQFPVSTESQKPRQKKAPEFPILEKQNWLIHLHYIRKDYEACKAVIKEQLQETQGLCEYAIYVQALIFRLEGNIQESLELFQTCAVLSPQSADNLKQVARSLFLLGKHKAAIEVYNEAAKLNQKDWEISHNLGVCYIYLKQFNKAQDQLHNALNLNRHDLTYIMLGKIHLLEGDLDKAIEVYKKAVEFSPENTELLTTLGLLYLQLGIYQKAFEHLGNALTYDPTNYKAILAAGSMMQTHGDFDVALTKYRVVACAVPESPPLWNNIEMCFFGKKKYVAAISCLKRANYLAPFDWKILYNLGLVHLTMQQYASAFHFLSAAINFQPKMGELYMLLAVALTNLEDIENAKRAYAEAVHLDKCNPLVNLNYAVLLYNQGEKKNALAQYQEMEKKVSLLKDNSSLEFDSEMVEMAQKLGAALQVGEALVWTKPVKDPKSKHQTTSTSKPASFQQPLGSNQALGQAMSSAAAYRTLPSGAGGTSQFTKPPSLPLEPEPAVESSPTETSEQIREK [G277E] | disrupting interaction |

Variants of: B2
Conditions: with bbs4_human BBS4, Q96RK4

| Variant | effect of a mutation on the interaction |
| --- | --- |
| MAAASSSDSDACGAESNEANSKWLDAHYDPMANIHTFSACLALADLHGDGEYKLVVGDLGPGGQQPRLKVLKGPLVMTESPLPALPAAAATFLMEQHEPRTPALALASGPCVYVYKNLRPYFKFSLPQLPPNPLEQDLWNQAKEDRIDPLTLKEMLESIRETAEEPLSIQSLRFLQLELSEMEAFVNQHKSNSIKRQTVITTMTTLKKNLADEDAVSCLVLGTENKELLVLDPEAFTILAKMSLPSVPVFLEVSGQFDVEFRLAAACRNGNIYILRRDSKHPKYCIELSAQPVGLIRVHKVLVVGSTQDSLHGFTHKGKKLWTVQMPAAILTMNLLEQHSRGLQAVMAGLANGEVRIYRDKALLNVIHTPDAVTSLCFGRYGREDNTLIRTTRGGGLIIKILKRTAVFVEGGSEVGPPPAQAMKLNVPRKTRLYVDQTLREREAGTAMHRAFQTDLYLLRLRAARAYLQALESSLSPLSTTAREPLKLHAVVQGLGPTFKLTLHLQNTSTTRPVLGLLVCFLYNEALYSLPRAFFKVPLLVPGLNYPLETFVESLSNKGISDIIKVLVLREGQSAPLLSAHVNMPGSEGLAAA [M390R] | decreasing interaction |
